assay: soluble on expression in E. coli; label from the status in PepcDB or PDB records

Soluble on expression in E. coli, soluble:
MRLKDKAVLITGAAHGIGRATLELFAKEGARLVACDIEEGPLREAAEAVGAHPVVMDVADPASVERGFAEALAHLGRLDGVVHYAGITRDNFHWKMPLEDWELVLRVNLTGSFLVAKAASEAMREKNPGSIVLTASRVYLGNLGQANYAASMAGVVGLTRTLALELGRWGIRVNTLAPGFIETRMTAKVPEKVREKAIAATPLGRAGKPLEVAYAALFLLSDESSFITGQVLFVDGGRTIGAAPA, MVMAAVIHKKGGPDNFVWEEVKVGSPGPGQVRLRNTAIGVNFLDTYHRAGIPHPLVVGEPPIVVGFEAAAVVEEVGPGVTDFTVGERVCTCLPPLGAYSQERLYPAEKLIKVPKDLDLDDVHLAGLMLKGMTAQYLLHQTHKVKPGDYVLIHAAAGGMGHIMVPWARHLGATVIGTVSTEEKAETARKLGCHHTINYSTQDFAEVVREITGGKGVDVVYDSIGKDTLQKSLDCLRPRGMCAAYGHASGVADPIRVVEDLGVRGSLFITRPALWHYMSNRSEIDEGSKCLFDAVKAGVLHSSVAKTFPLREAAAAHKYMGGRQTIGSIVLLPQA, GAMDTMESIVLNTIVTGLQEPKKEFIARVIKTIGSQRSLQLYENAMKVENSGGLLTADMSRRKTIGGVFCYLLKQLVAEDQITIQEWNYIRQEEKERINAKNILKRNNRRCQV, MSLNMKTFKFFTALFATAILTACTLDMERPTNVQYIDKTDAIWQQHLQKIQKIQSYQAKGQIGYISPTERFSSRFEWQYQNPKSYTLKLYSLISKSTLWIQMHQSGMTISDNNGNQQSAANSKLLLQEIIGMDVPLEHLAYWLKGQPAMNADYQVGTNHLLGAFTYHVDGSQWTADYLTYHSNNSMPENILLKNDSTKQTLKIRVDEWIYEGGSHHHHHH, MGHHHHHHSHMQENQQITKKEQYNLNKLQKRLRRNVGEAIADFNMIEEGDRIMVCLSGGKDSYTMLEILRNLQQSAPINFSLVAVNLDQKQPGFPEHVLPEYLEKLGVEYKIVEENTYGIVKEKIPEGKTTCSLCSRLRRGILYRTATELGATKIALGHHRDDILQTLFLNMFYGGKMKGMPPKLMSDDGKHIVIRPLAYCREKDIQRFADAKAFPIIPCNLCGSQPNLQRQVIADMLRDWDKRYPGRIETMFSAMQNVVPSHLCDTNLFDFKGITHGSEVVNGGDLAFDREEIPLQPACWQPEEDENQLDELRLNVVEVK

Soluble on expression in E. coli, not soluble:
MGNIANEAKLLKLDGKAYRNDFMLGNGKGHARDNLSRQRPGTSKRLSCSQLESLYSSNSMAKNIVDIPAEDLTRNGWSLKMQDDKVKALYESKLRQLKAKERLQQLFTYERLYGDGFVSIGTIEKREYSLSEPLDFENIKSVPYINAFSGKKISNRIIDEDVFSPNYGQIESFEVNNRSNNSRIHLLNNTTYSRATTIHRSRVLHQQNLRFEDELEGSSLLENLYDILTVADTSVWSVGQILYDFIFKVYKSADVRSLTPQDKLEIETKMDYQFRTEAIAIIDKEESLGKESSSVAGIGELLDFVWDYLAGAARMPKTVLKGQEGGTVTGAQYDVMNYYSRITAIQENQLRPHLEYLMRCLMWAEDECGGRLDPDSIEWSVEFNPLWNVDSKTDAEIRKLTAETDKIYIEAGVSDPDDVHEARFGRFGITETSKFNADSLSRDELDKMAAVVYENYKQDRDNEK, MGSDKIHHHHHHMEGNLKHNNGYCVICEKEATFIEHNDWLRDHYLCSTCHSIPRQRALIHVLNTFFPKWDSYHIHESSPGGITTQLLIKNCKNYTYSQYFKNYPLGQYFQGIRCENLENMTFQDESFDLFITQDVFEHVMEPNKAFKEIERVLKPGGAHVFTVPWYHTLPKTLQRARINEDGIEYIEEPIYHGNPIDENGSLVTFDWGQDMIEYIYTHANMYTLVYLQKDKSLGLDAEFLHVFISRKQENNF, ATRVQAAQKEPASDVSDKLEQIREEIAKDPQSVFKYITISPVKKDDAIIGYRVSPGRDAALFNDVGLEPGDIAVQLNGIDLSDPSSSVQLMQVMSDPQELNLTVERDGQQYDIYIQL, MGSDKIHHHHHHMPDTRITEDFLGFGLGLRTDHFEYILQHQPDIDWFEVLSENYLVAGGKPRYYLEAIAEQYPVVMHGVSMSIGSSDPLDMDYLKALKKLSNDIQPKWISDHICWTSIHGVNSHDLLPLPYTEETVNHVAQRVRQVQDVLGRRILLENVSSYLSYQDSTMDEWDFLSQVAEAADCLVLLDINNIYVSARNHHFNPLDYLKKIDPRRVQQFHLAGHSDFGDYVIDTHDHDVPPSVWTLYQAALERFGAVSTMIERDANIPEFPALYNELLEAKHIAQLTLPDDPALARSQFGSRSLDDLSKFINTNNASSQKVRA
